Test results as given in patent publication US20100316645A1 (Hoffmann-La Roche, published 2010).

B1: bispecific tetravalent antibody recognizing Ang-2 and VEGF-A of Example 1 (<VEGF> VH-CL fused via (G4S)4-connector to the C-terminus of the <Ang-2> heavy chain) (bispecific antibody, human IgG1, kappa)
heavy: not shown
light: QPGLTQPPSVSVAPGQTARITCGGNNIGSKSVHWYQQKPGQAPVLVVYDDSDRPSGIPERFSGSNSGNTATLTISRVEAGDEADYYCQVWDSSSDHYVFGTGTKVTVLRTVAAPSVFIFPPSDEQLKSGTASVVCLLNNFYPREAKVQWKVDNALQSGNSQESVTEQDSKDSTYSLSSTLTLSKADYEKHKVYACEVTHQGLSSPVTKSFNRGEC
chain: DIQMTQSPSSLSASVGDRVTITCSASQDISNYLNWYQQKPGKAPKVLIYFTSSLHSGVPSRFSGSGSGTDFTLTISSLQPEDFATYYCQQYSTVPWTFGQGTKVEIKSSASTKGPSVFPLAPSSKSTSGGTAALGCLVKDYFPEPVTVSWNSGALTSGVHTFPAVLQSSGLYSLSSVVTVPSSSLGTQTYICNVNHKPSNTKVDKKVEPKSC
notes: Tetravalent, expressed in HEK293F from three plasmids; also called bispecific tetravalent <VEGF-Ang-2> antibody; <Ang-2, VEGF> bispecific tetravalent antibody
B2: bispecific tetravalent antibody recognizing Ang-2 and VEGF-A of Example 2 (<VEGF> VH-CL fused via (G4S)4-connector to the N-terminus of the <Ang-2> heavy chain) (bispecific antibody, human IgG1, kappa)
heavy: not shown
light: QPGLTQPPSVSVAPGQTARITCGGNNIGSKSVHWYQQKPGQAPVLVVYDDSDRPSGIPERFSGSNSGNTATLTISRVEAGDEADYYCQVWDSSSDHYVFGTGTKVTVLRTVAAPSVFIFPPSDEQLKSGTASVVCLLNNFYPREAKVQWKVDNALQSGNSQESVTEQDSKDSTYSLSSTLTLSKADYEKHKVYACEVTHQGLSSPVTKSFNRGEC
chain: DIQMTQSPSSLSASVGDRVTITCSASQDISNYLNWYQQKPGKAPKVLIYFTSSLHSGVPSRFSGSGSGTDFTLTISSLQPEDFATYYCQQYSTVPWTFGQGTKVEIKSSASTKGPSVFPLAPSSKSTSGGTAALGCLVKDYFPEPVTVSWNSGALTSGVHTFPAVLQSSGLYSLSSVVTVPSSSLGTQTYICNVNHKPSNTKVDKKVEPKSC
notes: as for B1
B3: bispecific tetravalent antibody recognizing Ang-2 and VEGF-A of Example 3 (<Ang-2> VH-CH1 fused via (G4S)4-connector to the C-terminus of the heavy chain of a … (bispecific antibody)
heavy: not shown
light: QPGLTQPPSVSVAPGQTARITCGGNNIGSKSVHWYQQKPGQAPVLVVYDDSDRPSGIPERFSGSNSGNTATLTISRVEAGDEADYYCQVWDSSSDHYVFGTGTKVTVLRTVAAPSVFIFPPSDEQLKSGTASVVCLLNNFYPREAKVQWKVDNALQSGNSQESVTEQDSKDSTYSLSSTLTLSKADYEKHKVYACEVTHQGLSSPVTKSFNRGEC
chain: DIQMTQSPSSLSASVGDRVTITCSASQDISNYLNWYQQKPGKAPKVLIYFTSSLHSGVPSRFSGSGSGTDFTLTISSLQPEDFATYYCQQYSTVPWTFGQGTKVEIKSSASTKGPSVFPLAPSSKSTSGGTAALGCLVKDYFPEPVTVSWNSGALTSGVHTFPAVLQSSGLYSLSSVVTVPSSSLGTQTYICNVNHKPSNTKVDKKVEPKSC
notes: as for B1

Biological target: T1, recombinant human VEGF165 (full-length VEGF165-His protein, R&D Systems; rhVEGF, R&D Systems Cat.-No. 293-VE) (human, UniProt P15692-4 27-191)
T1 construct: The ELISA method names 'full-length VEGF165-His protein', and the Biacore method names rhVEGF (R&D 293-VE); also called VEGF-A
Assay: ELISA and Biacore (SPR), including simultaneous binding (bridging ELISA, SPR sandwich)
Description: Unbound Streptavidin-POD conjugate is washed away with three-six times 300 μl PBST (0.2% Tween 20) and bound Strepatavidin-POD conjugate is detected by addition of 100 μL ABTS/well. Determination of absorbance is performed on a Tecan Fluor Spectrometer at a measurement wavelength of 405 nm (reference wavelength 492 nm).
In order to further corroborate the data from the bridging ELISA an additional assay is established to confirm simultaneous binding to VEGF and Ang-2 using surface plasmon resonance technology on a Biacore T100 instrument according to the following protocol and analyzed using the T100 software package (T100 Control, Version 2.01, T100 Evaluation, Version 2.01, T100 Kinetics Summary, Version 1.01): Ang-2 is captured with a capture level of 2000-1700 RU in PBS, 0.005% (v/v) Tween20 running buffer via a PentaHisAntibody (PentaHis-Ab BSA-free, Qiagen No. 34660) that is immobilized on a CM5 chip via amine coupling (BSA-free). HBS-N buffer served as running buffer during coupling, activation is done by mixture of EDC/NHS. The PentaHis-Ab BSA-free Capture-Antibody is diluted in coupling buffer NaAc, pH 4.5, c=30 μg/mL, finally still activated carboxyl groups are blocked by injection of 1 M Ethanolamine; ligand densities of 5000 and 17000 RU are tested. Ang-2 with a concentration of 500 nM is captured by the PentaHis-Ab at a flow of 5 μL/min diluted with running buffer+1 mg/mL BSA. […] For this sake, the bispecific tetravalent <VEGF-Ang-2> antibody is bound to Ang-2 at a flow of 50 μL/min and a concentration of 100 nM, diluted with running buffer+1 mg/mL BSA and simultaneous binding is detected by incubation with VEGF (rhVEGF, R&D-Systems Cat.-No, 293-VE) in PBS+0.005% (v/v) Tween20 running buffer at a flow of 50 μL/min and a VEGF concentration of 150 nM. Association time 120 sec, dissociation time 1200 sec. Regeneration is done after each cycle at a flow of 50 μL/min with 2×10 mM Glycin pH 2.0 and a contact time of 60 sec. […] Blanks for each Ab are measured with rhVEGF concentration “0”.

T1 sequence (P15692 other isoform, or with tags, fused parts or gaps limits assumed): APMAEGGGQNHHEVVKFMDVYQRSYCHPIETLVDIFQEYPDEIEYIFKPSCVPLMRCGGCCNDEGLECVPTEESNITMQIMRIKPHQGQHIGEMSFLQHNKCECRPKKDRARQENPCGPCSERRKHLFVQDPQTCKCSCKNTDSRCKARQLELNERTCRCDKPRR

Binding result, binds:
B1, B2, B3
